One protein from PMC4841237, “Structure and stability of recombinant bovine odorant-binding protein: II. Unfolding of the monomeric forms” (PeerJ, 2016) can be followed below.

The data set deals with the molecule itself. Kind of data set: SEC; gel filtration on Superdex-75 PC 3.2/30, 20 mM Na-phosphate pH 7.8, without GdnHCl and at low GdnHCl (below 1.5-2 M), with or without 10 mM OCT; protein 0.1-0.2 mg/ml; monomer to dimer. In general terms: In gel filtration, larger molecules generally elute earlier.

B1: recombinant bovine odorant-binding protein (natural protein)
chain: AQEEEAEQNLSELSGPWRTVYIGSTNPEKIQENGPFRTYFRELVFDDEKGTVDFYFSVKRDGKWKNVHVKATKQDDGTYVADYEGQNVFKIVSLSRTHLVAHNINVDKHGQTTELTELFVKLNVEDEDLEKFWKLTEDKGIDKKNVVNFLENEDHPHPE
notes: In some samples 10 mM 1-octen-3-ol (OCT) was present; also called bOBP; bOBPwt; source: E. coli BL21(DE3), plasmid pT7-7-bOBP, purified (Ni+-agarose, HisGraviTrap)
Take B1: the stoichiometry N (usually the number of molecules, sites or subunits per partner or assembly) was 2.
